B1: Ab1119/Ab480 (antibody, V domains shown)
VH: QMQLVQSGAEVKKPGSSVKVSCKASGFNIKDYYLHWVRQAPGKGLEWMGWIDPDQGDTEYAQKFQGRVTITRDRSTSTAYMELRSLRAEDTAVYYCNAAYGSSSYPMDYWGQGTLVTVSS
VL: NIQMTQSPSSLSASVGDRVTITCRASQDIHRYLSWFQQKPGKVPKHLIYRANRLVSGVPSRFSGSGSGTEFTLTISSLQPEDFATYYCLQYDEFPYTFGGGTKVEIK
notes: Variant of AbParental; also called LC Ab1119 / HC Ab480
B2: Ab480/Ab1127 (antibody, V domains shown)
VH: QMQLVQSGAEVKKPGSSVKVSCKASGFNIKDYYLHWVRQAPGKGLEWMGWIDPDQGDTEYAQKFQGRVTITRDRSTSTAYMELRSLRAEDTAVYYCNAAYGSSSYPMDYWGQGTLVTVSS
VL: NIQMTQSPSSLSASVGDRVTITCRASQDIHRYLSWFQQKPGKVPKHLIYRESRFVDGVPSRFSGSGSGTEFTLTISSLQPEDFATYYCLQYDEFPYTFGGGTKVEIK
notes: FR and CDR L2 variant; Label printed HC first; r460 used; also called HC Ab480 / LC Ab1127
B3: Ab480/Ab1121 (antibody, V domains shown)
VH: QMQLVQSGAEVKKPGSSVKVSCKASGFNIKDYYLHWVRQAPGKGLEWMGWIDPDQGDTEYAQKFQGRVTITRDRSTSTAYMELRSLRAEDTAVYYCNAAYGSSSYPMDYWGQGTLVTVSS
VL: NIQMTQSPSSLSASVGDRVTITCRASQDIHRYLSWFQQKPGKVPKHLIYRYIRFVDGVPSRFSGSGSGTEFTLTISSLQPEDFATYYCLQYDEFPYTFGGGTKVEIK
notes: FR and CDR L2 variant; Label printed HC first; r442 used; also called HC Ab480 / LC Ab1121
B4: Ab480/Ab1120 (antibody, V domains shown)
VH: QMQLVQSGAEVKKPGSSVKVSCKASGFNIKDYYLHWVRQAPGKGLEWMGWIDPDQGDTEYAQKFQGRVTITRDRSTSTAYMELRSLRAEDTAVYYCNAAYGSSSYPMDYWGQGTLVTVSS
VL: NIQMTQSPSSLSASVGDRVTITCRASQDIHRYLSWFQQKPGKVPKHLIYRYVRFVDGVPSRFSGSGSGTEFTLTISSLQPEDFATYYCLQYDEFPYTFGGGTKVEIK
notes: FR and CDR L2 variant; Label printed HC first although the head says LC/HC; also called HC Ab480 / LC Ab1120
B5: Ab480/Ab1122 (antibody, V domains shown)
VH: QMQLVQSGAEVKKPGSSVKVSCKASGFNIKDYYLHWVRQAPGKGLEWMGWIDPDQGDTEYAQKFQGRVTITRDRSTSTAYMELRSLRAEDTAVYYCNAAYGSSSYPMDYWGQGTLVTVSS
VL: NIQMTQSPSSLSASVGDRVTITCRASQDIHRYLSWFQQKPGKVPKHLIYRYERFVDGVPSRFSGSGSGTEFTLTISSLQPEDFATYYCLQYDEFPYTFGGGTKVEIK
notes: FR and CDR L2 variant; Label printed HC first; r445 used; also called HC Ab480 / LC Ab1122
B6: Ab356/Ab1121 (antibody, V domains shown)
VH: QMQLVQSGAEVKKPGSSVKVSCKASGFNIKDYYLHWVRQAPGKGLEWMGWIDPDQGDTEYAQKFQGRVTITRDRSTSTAYMELRSLRAEDTAVYYCNAAYGSSSYPMDYWGQGTTVTVSS
VL: NIQMTQSPSSLSASVGDRVTITCRASQDIHRYLSWFQQKPGKVPKHLIYRYIRFVDGVPSRFSGSGSGTEFTLTISSLQPEDFATYYCLQYDEFPYTFGGGTKVEIK
notes: FR and CDR L2 variant; Label printed HC first; the entry in numeric order (r442) is used; also called HC Ab356 / LC Ab1121
B7: Ab356/Ab1122 (antibody, V domains shown)
VH: QMQLVQSGAEVKKPGSSVKVSCKASGFNIKDYYLHWVRQAPGKGLEWMGWIDPDQGDTEYAQKFQGRVTITRDRSTSTAYMELRSLRAEDTAVYYCNAAYGSSSYPMDYWGQGTTVTVSS
VL: NIQMTQSPSSLSASVGDRVTITCRASQDIHRYLSWFQQKPGKVPKHLIYRYERFVDGVPSRFSGSGSGTEFTLTISSLQPEDFATYYCLQYDEFPYTFGGGTKVEIK
notes: FR and CDR L2 variant; Label printed HC first; r445 used; also called HC Ab356 / LC Ab1122
B8: Ab482/Ab387 (antibody, V domains shown)
VH: QMQLVQSGAEVKKPGSSVKVSCKASGFNIKDYYLHWVRQAPGKGLEWMGWIDPDQGDTEYAQKFQGRVTITRDRSTSTAYMELRSLRSEDTAVYYCNAAYGSSSYPMDYWGQGTLVTVSS
VL: NIQMTQSPSSMSASVGDRVTITCKASQDIHRYLSWFQQKPGKVPKHLIYRANRLVSGVPSRFSGSGSGTEFTLTISSLQPEDFATYYCLQYDEFPYTFGGGTKVEIK
notes: FR variant of AbParental; also called LC Ab482 / HC Ab387
B9: Ab495/Ab356 (antibody, V domains shown)
VH: QMQLVQSGAEVKKPGSSVKVSCKASGFNIKDYYLHWVRQAPGKGLEWMGWIDPDQGDTEYAQKFQGRVTITRDRSTSTAYMELRSLRAEDTAVYYCNAAYGSSSYPMDYWGQGTTVTVSS
VL: NIQMTQSPSSLSASVGDRVTITCKASQDIHRYLSWYQQKPGKAPKHLIYRANRLVSGVPSRFSGSGSGTEFTLTISSLQPEDFATYYCLQYDEFPYTFGGGTKVEIK
notes: also called LC Ab495 / HC Ab356
B10: Ab1119/Ab170 (antibody, V domains shown)
VH: QMQLVQSGAEVKKPGSSVKVSCKASGFNIKDYYLHWVRQAPGKGLEWMGWIDPDQGDTEYAQKFQGRVTITRDRSTSTAYMELRSLRSEDTAVYYCNAAYGSSSYPMDYWGQGTTVTVSS
VL: NIQMTQSPSSLSASVGDRVTITCRASQDIHRYLSWFQQKPGKVPKHLIYRANRLVSGVPSRFSGSGSGTEFTLTISSLQPEDFATYYCLQYDEFPYTFGGGTKVEIK
notes: Variant of AbParental; also called LC Ab1119 / HC Ab170
B11: Ab356/Ab1120 (antibody, V domains shown)
VH: QMQLVQSGAEVKKPGSSVKVSCKASGFNIKDYYLHWVRQAPGKGLEWMGWIDPDQGDTEYAQKFQGRVTITRDRSTSTAYMELRSLRAEDTAVYYCNAAYGSSSYPMDYWGQGTTVTVSS
VL: NIQMTQSPSSLSASVGDRVTITCRASQDIHRYLSWFQQKPGKVPKHLIYRYVRFVDGVPSRFSGSGSGTEFTLTISSLQPEDFATYYCLQYDEFPYTFGGGTKVEIK
notes: FR and CDR L2 variant; also called HC Ab356 / LC Ab1120
B12: Ab356/Ab1127 (antibody, V domains shown)
VH: QMQLVQSGAEVKKPGSSVKVSCKASGFNIKDYYLHWVRQAPGKGLEWMGWIDPDQGDTEYAQKFQGRVTITRDRSTSTAYMELRSLRAEDTAVYYCNAAYGSSSYPMDYWGQGTTVTVSS
VL: NIQMTQSPSSLSASVGDRVTITCRASQDIHRYLSWFQQKPGKVPKHLIYRESRFVDGVPSRFSGSGSGTEFTLTISSLQPEDFATYYCLQYDEFPYTFGGGTKVEIK
notes: FR and CDR L2 variant; Label printed HC first; r460 used; also called HC Ab356 / LC Ab1127
B13: Ab495/Ab480 (antibody, V domains shown)
VH: QMQLVQSGAEVKKPGSSVKVSCKASGFNIKDYYLHWVRQAPGKGLEWMGWIDPDQGDTEYAQKFQGRVTITRDRSTSTAYMELRSLRAEDTAVYYCNAAYGSSSYPMDYWGQGTLVTVSS
VL: NIQMTQSPSSLSASVGDRVTITCKASQDIHRYLSWYQQKPGKAPKHLIYRANRLVSGVPSRFSGSGSGTEFTLTISSLQPEDFATYYCLQYDEFPYTFGGGTKVEIK
notes: also called LC Ab495 / HC Ab480

From patent US20190241654A1 (published 2019) come the findings set out here.

For the experiment, the target named is T1, recombinant extracellular domain of CD47 (UniProt Q08722 19-139, limits assumed).
T1 construct: extracellular domain; Analyte flowed over the captured antibodies in SPR; also called CD47-ECD
T1 sequence (Q08722 19-139 limits assumed): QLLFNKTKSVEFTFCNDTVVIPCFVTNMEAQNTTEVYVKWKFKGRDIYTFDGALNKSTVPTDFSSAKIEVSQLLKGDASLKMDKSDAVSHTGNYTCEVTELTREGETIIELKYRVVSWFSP
Nature of the experiment: SPR; antibody captured on anti-human Fc, CD47-ECD flowed 0-100 nM; 1:1 Langmuir. As to the method: The binding kinetics of anti-CD47 antibodies to the recombinant extracellular domain of CD47 were determined by using surface Plasmon resonance (SPR, MASS-1, Sierra Sensors; T200, Biacore, GE Healthcare Life Sciences). Anti-human Fc (P/N: BR-1008-39 (GE Healthcare Life Sciences)) was immobilized on a High Capacity Amine chip (P/N: SPR-AS-HCA, Sierra sensors) or CM5-S Chip (GE Healthcare Life Sciences). CD47 antibodies were captured on Human IgG FC and CD47-ECD was flowed over the surface at various concentrations ranging from zero (for double referencing) to 100 nM. In order to determine KD's, antibodies were ranked using a 1:1 Langmuir model.
(In general: Surface plasmon resonance follows binding to a sensor surface in real time, without labels.)
B1: the Kd is 0.564 nM, the koff worked out at 0.00577 s⁻¹ and the on-rate (kon) is 1.02e+07 M⁻¹ s⁻¹.
With B2, the Kd came out at 2.42 nM, the koff came to 0.00622 s⁻¹ and the kon is 2.57e+06 M⁻¹ s⁻¹.
Turning to B3, the dissociation constant (Kd) came to 1.14 nM, the koff is 0.00303 s⁻¹ and the kon worked out at 2.67e+06 M⁻¹ s⁻¹.
With B4, the Kd is 1.05 nM, the koff came out at 0.00238 s⁻¹ and the kon is 2.28e+06 M⁻¹ s⁻¹.
In the case of B5, the Kd was determined as 4.68 nM, the koff is 0.0109 s⁻¹ and the kon is 2.33e+06 M⁻¹ s⁻¹.
For B6 the same measures were 1.08 nM, 0.00272 s⁻¹ and 2.53e+06 M⁻¹ s⁻¹.
For the molecule B7, the Kd is 77.9 nM, the koff stood at 0.00411 s⁻¹ and the kon was 22800 M⁻¹ s⁻¹.
As for B8, the Kd is 0.553 nM, the off-rate (koff) came out at 0.00549 s⁻¹ and the kon came out at 9.93e+06 M⁻¹ s⁻¹.
On the same counts, the results for B9 are 1.36 nM, 0.00426 s⁻¹ and 3.13e+06 M⁻¹ s⁻¹.
With B10, the Kd amounted to 0.562 nM, the koff was found to be 0.00583 s⁻¹ and the kon is 1.04e+07 M⁻¹ s⁻¹.
On the same counts, the results for B11 are 1.02 nM, 0.00274 s⁻¹ and 2.69e+06 M⁻¹ s⁻¹.
Turning to B12, the Kd came to 4.76 nM, the koff came to 0.0106 s⁻¹ and the kon is 2.22e+06 M⁻¹ s⁻¹.
As for B13, the Kd turned out to be 1.32 nM, the koff worked out at 0.00434 s⁻¹ and the kon was found to be 3.29e+06 M⁻¹ s⁻¹.

For orientation: Kd means the constant that tells how readily two partners part at equilibrium. By koff is commonly meant the rate constant with which the complex falls apart. The term kon denotes the second-order rate constant of association.
